In the supplement of paper PMC9170038:

Tested on: MS2 coat protein
Experiment: apparent KD of MS2 coat protein; designed switch direction (-1 OFF switch, 1 ON switch): -1; higher = weaker reporter binding
Method in brief: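 Designed RNA switches with common flanks were made on Illumina chips by stalled E. coli RNA polymerase. Titration with SNAP-549-labelled MS2 coat protein doubled from 0.7 or 1.5 nM up to 3 µM. Apparent KD is each design's median over clusters after curve-fitting normalised fluorescence.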

[1] = Eterna round: R95, input ligand: FMN 200 uM
[2] = Eterna round: R95, input ligand: microRNA oligo, concentration not stated
[3] = Eterna round: R95, input ligand: none
[4] = input ligand: microRNA oligo, concentration not stated

Sequence: ACCUCACAUGAGGAUCACCCAUGUCAGGAUAUCUUUUAAACCGCGAAUCGCGGCGCUGAGAGAAGGGACAUUAA [EX1 #20] (Eterna round: R97, puzzle: Exclusion 1)
- apparent KD of MS2 coat protein (input ligand: FMN 200 uM): 108 nM
- apparent KD of MS2 coat protein (input ligand: none): 39.4 nM

Sequence: ACCUCACAUGAGGAUCACCCAUGUCAGGAUAUGUACCUGGUCUAGUCAAAGACCAGAAGCAGAAGGGACUGCGG [Ria] (puzzle: Exclusion 1)
- apparent KD of MS2 coat protein [1]: 29.7 nM
- apparent KD of MS2 coat protein [2]: 87.8 nM
- apparent KD of MS2 coat protein [3]: 106 nM

Sequence: ACCUCACAUGAGGAUCACCCAUGUCAGGAUAUUCAAACAGGCGGAACUCCGCCUUCUCGAAGAAGGGACAUUAA [Ontebileza] (Eterna round: R96, puzzle: Exclusion 1)
- apparent KD of MS2 coat protein (input ligand: FMN 200 uM): 62.1 nM
- apparent KD of MS2 coat protein [4]: 15.9 nM
- apparent KD of MS2 coat protein (input ligand: none): 16.4 nM

Sequence: ACCUCACAUGAGGAUCACCCAUGUCAGGAUAUUCAAACAGGCGGAACUCCGCCUUCUCGAAGAAGGGACAUUAA [Ontebileza] (puzzle: Exclusion 1)
- apparent KD of MS2 coat protein [2]: 16.6 nM

Sequence: ACCUCACAUGAGGAUCACCCAUGUUAGGAUAUCUCGAUGCUCCACGGGCGGUAGCAUCAGAGAAGGAACGUGCU [Vematior] (puzzle: Exclusion 1)
- apparent KD of MS2 coat protein [2]: 19 nM

Sequence: ACCUUACAUGAGGAUCACCCAUGUCAGGAUAUCUCGGGCGACCGAGGGCCGGCCGCCCAGAGAAGGGACGAGGA [Aainmaso] (puzzle: Exclusion 1)
- apparent KD of MS2 coat protein [2]: 11.8 nM

Sequence: ACGAAACAUGAGGAUCACCCAUGUGAGGAUAUGUAAAGACUAGACAAAGAACAGAAAAACAGAAGGCACACAGA [JR_Exclusion1_Sub002] (puzzle: Exclusion 1)
- apparent KD of MS2 coat protein [1]: 28 nM
- apparent KD of MS2 coat protein [2]: 19.7 nM
- apparent KD of MS2 coat protein [3]: 26.7 nM

Sequence: ACGAAAGCAAGCAAGUGAAACAUGAGGAUCACCCAUGUCCUCAUUUGCUCGUCUUAUAAAAGCUAUCGAAAGAUAGC [Mat - Sensor v3 - turn-off var 1 - Eli Mod - D47] (puzzle: Sensor v3, turn-off variant 1)
- apparent KD of MS2 coat protein [1]: 11.9 nM
- apparent KD of MS2 coat protein [2]: 157 nM
- apparent KD of MS2 coat protein [3]: 13.2 nM

Sequence: ACGAGGGUUACAGGAUAUGAAGCUAAAACGGCGUUAGAAGGGUAUACAGAGUUACAUGAGGAUCACCCAUGUUGUGACUUCGAA [AK ExNG1-V2-4] (Eterna round: R96, puzzle: Exclusion NG 1)
- apparent KD of MS2 coat protein [4]: 29.4 nM

Sequence: ACGAUGUUUGGAGGAUAUACAUGAGGAUCACCCAUGUGCGACCGAGUCCGCACUUCACCUCAGUGGUAGAAGGCCGAACAUCGA [Eternabot solution 12] (Eterna round: R96, puzzle: Exclusion NG 2)
- apparent KD of MS2 coat protein (input ligand: FMN 200 uM): 97.9 nM
- apparent KD of MS2 coat protein [4]: 545 nM
- apparent KD of MS2 coat protein (input ligand: none): 255 nM

Sequence: ACGCAGAGAGGAUAUACAUGAGGAUCACCCAUGUAUAAACGCACUAACUCUCCUCACUGUAGAAGGCUCAUGCA [Larerige] (puzzle: Exclusion 3)
- apparent KD of MS2 coat protein [2]: 11.3 nM

Sequence: ACGCCGCAAGGAUAUCGUAAAGCAGACAUGAGGAUCACCCAUGUGAUAUCAGAAAGGCCACGAGAAGGUGCACAAG [Tigeor] (puzzle: Exclusion 5)
- apparent KD of MS2 coat protein [1]: 32.4 nM
- apparent KD of MS2 coat protein [2]: 20.3 nM
- apparent KD of MS2 coat protein [3]: 21.3 nM

Sequence: ACGCGACAUGAGGAUCACCCAUGUGAGGAUAUGGCCUGUUUGGCGUGUGCUGGCUCUGUCAGAAGGCGCGUGGG [salish99_ex1_r4_040] (Eterna round: R97, puzzle: Exclusion 1)
- apparent KD of MS2 coat protein (input ligand: FMN 200 uM): 141 nM
- apparent KD of MS2 coat protein (input ligand: none): 90.4 nM

Sequence: ACGCGCAUAGGAUAUGCCGACGGAGAACUCCAGUGACUUCAACAUGAGGAUCACCCAUGUAGAAGGAUGAUGCA [Eternabot (Original) Solution 32] (Eterna round: R97, puzzle: Exclusion 2)
- apparent KD of MS2 coat protein (input ligand: FMN 200 uM): 16.8 nM
- apparent KD of MS2 coat protein (input ligand: none): 14.8 nM

Sequence: ACGCGUGAAGGAUAUACGCGGGCCCAAGCGGAUCACACCGCACAUGAGGAUCACCCAUGUAGAAGGUCACAAAA [r4x2dt1] (Eterna round: R97, puzzle: Exclusion 2)
- apparent KD of MS2 coat protein (input ligand: FMN 200 uM): 169 nM
- apparent KD of MS2 coat protein (input ligand: none): 23.5 nM

Sequence: ACGCGUGGCUAGGAUAUGCAGCAAUCUAGCCAGGCAGAAGGAGCCACAUGAGGAUCACCCAUGUGGUGAUCCUC [eternacac ex6r4 sub2] (Eterna round: R97, puzzle: Exclusion 6)
- apparent KD of MS2 coat protein (input ligand: FMN 200 uM): 8.21 nM
- apparent KD of MS2 coat protein (input ligand: none): 11.2 nM

Sequence: ACGCGUUUAGGAUAUACGUGCCUUGACAGUCCUAUUGUGUUACAUGAGGAUCACCCAUGUAGAAGGAGGCCGCG [Eternabot (L1) Solution 79] (Eterna round: R97, puzzle: Exclusion 2)
- apparent KD of MS2 coat protein (input ligand: FMN 200 uM): 19.4 nM
- apparent KD of MS2 coat protein (input ligand: none): 20.2 nM

Sequence: ACGGCAUAAGGAUAUGCAAGGUGCUGACUUCCUCCGUCAUUACAUGAGGAUCACCCAUGUAGAAGGUAUGUACC [Eternabot (Original) Solution 9] (Eterna round: R97, puzzle: Exclusion 2)
- apparent KD of MS2 coat protein (input ligand: FMN 200 uM): 18.4 nM
- apparent KD of MS2 coat protein (input ligand: none): 18.5 nM

Sequence: ACGUAUAGAGGAUAUACUGAAUAUUACAUGAGGAUCACCCAUGUUCUUCAAAGUAUAUUUGUAGAAGGCUAAUGAA [EX-5 Malc#9] (puzzle: Exclusion 5)
- apparent KD of MS2 coat protein [1]: 15.8 nM
- apparent KD of MS2 coat protein [2]: 10.2 nM
- apparent KD of MS2 coat protein [3]: 9.61 nM

Sequence: ACGUAUAGAGGAUAUAGUGAAUAUUACAUGAGGAUCACCCAUGUUCUUCAAAGUAUAUUCCUAGAAGGCUAAUGAA [EX-5 Malc#11] (puzzle: Exclusion 5)
- apparent KD of MS2 coat protein [1]: 537 nM
- apparent KD of MS2 coat protein [2]: 148 nM
- apparent KD of MS2 coat protein [3]: 171 nM

Sequence: ACGUGAUAUCUGUCGGUGGACAUGAGGAUCACCCAUGUGAGCUUUUUGCUCGUCUUAUAACCCGAUGACAGACCUUC [Anorin] (puzzle: Sensor v3, turn-off variant 1)
- apparent KD of MS2 coat protein [1]: 14.2 nM
- apparent KD of MS2 coat protein [2]: 266 nM
- apparent KD of MS2 coat protein [3]: 13 nM

Sequence: ACGUGGUGAGGAUAUGCACAAUACAAGAGUGUCAGAUCCGGACAUGAGGAUCACCCAUGUAGAAGGCACCCAAU [Eternabot (Original) Solution 10] (Eterna round: R97, puzzle: Exclusion 2)
- apparent KD of MS2 coat protein (input ligand: FMN 200 uM): 41 nM
- apparent KD of MS2 coat protein (input ligand: none): 50.8 nM

Sequence: ACUAAUAGAGGAUAUACAGUUUAUUACAUGAGGAUCACCCAUGUUCUUCAAUGUAUAUAAGUAGAAGGCUAUGGAA [EX-5 Malc#4] (puzzle: Exclusion 5)
- apparent KD of MS2 coat protein [2]: 56.9 nM

Sequence: ACUAAUUGAGGAUAUACAAGAAUUAACAUGAGGAUCACCCAUGUUCUUAUUUGAAUUAAAGUAGAAGGCAGAAGAA [JR_Ex5_Sub063] (Eterna round: R97, puzzle: Exclusion 5)
- apparent KD of MS2 coat protein (input ligand: FMN 200 uM): 16 nM
- apparent KD of MS2 coat protein (input ligand: none): 28.9 nM

Sequence: ACUAGAUGAGGAUAUACACAUUUUAGUGUUCCUCUAGAUUAACAUGAGGAUCACCCAUGUAGAAGGCAUCAUUU [Exclusion 2 - 10] (puzzle: Exclusion 2)
- apparent KD of MS2 coat protein [2]: 80.8 nM

Sequence: ACUAGAUGAGGAUAUGCACAUUUUAGUGUUCCUCUAGAUUAACAUGAGGAUCACCCAUGUAGAAGGCGUCAAUU [Exclusion 2 - 12] (puzzle: Exclusion 2)
- apparent KD of MS2 coat protein [2]: 53.1 nM

Sequence: ACUAGAUGAGGAUAUGCAUAUUUUCGUGUUCUUCUAGAUUAACAUGAGGAUCACCCAUGUAGAAGGCGUCAUUA [Exclusion 2 - 17] (puzzle: Exclusion 2)
- apparent KD of MS2 coat protein [2]: 16.6 nM

Sequence: ACUAGAUGAGGAUAUGCAUAUUUUCGUGUUCUUCUAGAUUAACAUGAGGAUCACCCAUGUAGAAGGCGUCUGGC [Exclusion 2 - 20] (puzzle: Exclusion 2)
- apparent KD of MS2 coat protein [2]: 18 nM

Sequence: ACUAGAUGAGGAUAUGCAUAUUUUCGUGUUCUUCUAGAUUAACAUGAGGAUCACCCAUGUAGAAGGCGUCUGGU [Exclusion 2 - 19] (puzzle: Exclusion 2)
- apparent KD of MS2 coat protein [2]: 29.7 nM

Sequence: ACUAGAUGAGGAUAUGCAUAUUUUCGUGUUCUUCUAGGUUAACAUGAGGAUCACCCAUGUAGAAGGCGUCUGGA [Exclusion 2 - 21] (puzzle: Exclusion 2)
- apparent KD of MS2 coat protein [2]: 20 nM

Sequence: ACUAGAUGAGGAUAUGCAUGUUUUCAUGUUCUUCUAGAUUAACAUGAGGAUCACCCAUGUAGAAGGCGUCUUUA [Exclusion 2 - 32] (puzzle: Exclusion 2)
- apparent KD of MS2 coat protein [2]: 18.9 nM

Sequence: ACUAGAUGAGGAUAUGCAUGUUUUCGUGUUCUUCUAGAUUAACAUGAGGAUCACCCAUGUAGAAGGCGUCAUUU [Exclusion 2 - 27] (puzzle: Exclusion 2)
- apparent KD of MS2 coat protein [2]: 76.9 nM

Sequence: ACUAGUCAUGAGGAUAUGCGAGCCAACGGGCGAGCAGAAGGCGUGACAUGAGGAUCACCCAUGUCAGUUCGCGA [eternacac ex6r4 sub31] (Eterna round: R97, puzzle: Exclusion 6)
- apparent KD of MS2 coat protein (input ligand: FMN 200 uM): 21.9 nM
- apparent KD of MS2 coat protein (input ligand: none): 17.4 nM

Sequence: ACUCAGUGAGGAUAUCGCCAGAGAGCCGUGACGGCUCCUGAUGAGAAGGCACAUGAGGAUCACCCAUGUAAGCA [EX4 C.7] (Eterna round: R97, puzzle: Exclusion 4)
- apparent KD of MS2 coat protein (input ligand: FMN 200 uM): 204 nM
- apparent KD of MS2 coat protein (input ligand: none): 134 nM

Sequence: ACUCCUGAUGUUAGGAUAUCAGGCGCGACAGCGGAUGAGAAGGAACAUGAGGAUCACCCAUGUGGGCUUAUCAA [Reedonso] (Eterna round: R97, puzzle: Brourd's mod of Exclusion 4)
- apparent KD of MS2 coat protein (input ligand: FMN 200 uM): 325 nM
- apparent KD of MS2 coat protein (input ligand: none): 81.6 nM
